Laboratory results: the supplement of paper PMC10567573

B1: ZNF511 (parent)
chain: YEHHYHTLHGNVCSFCKRAFPSGH
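Also: lentivirally expressed fusions sorted by FACS into six bins by GFP to DsRed ratio, PSI derived from sequencing read proportions per bin multiplied by bin number.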

Variants of: B1
Assay: protein stability index of a GFP-peptide fusion (GPS, HEK-293T) (PSI 1-6); higher = more stable
Details: c terminus: a fixed tail appended
YRHHYHTLHGNVCSFCKRAFPSGH gave a protein stability index of 1.8. Work on YMHHYHTLHGNVCSFCKRAFPSGH yielded a protein stability index of 2.08. In the case of YCHHYHTLHGNVCSFCKRAFPSGH, the protein stability index is reported as 2.15. YTHHYHTLHGNVCSFCKRAFPSGH showed a protein stability index of 3.14. Variant YPHHYHTLHGNVCSFCKRAFPSGH has a protein stability index of 1.54. Work on YQHHYHTLHGNVCSFCKRAFPSGH yielded a protein stability index of 2.43. With YHHHYHTLHGNVCSFCKRAFPSGH the protein stability index was 2.66. For YSHHYHTLHGNVCSFCKRAFPSGH, the protein stability index was 3.32. YYHHYHTLHGNVCSFCKRAFPSGH gave a protein stability index of 2.27. Work on YLHHYHTLHGNVCSFCKRAFPSGH yielded a protein stability index of 1.65. In the case of YFHHYHTLHGNVCSFCKRAFPSGH, the protein stability index is reported as 3.12. For YNHHYHTLHGNVCSFCKRAFPSGH, the protein stability index was 1.37. For YEHHYHTVHGNVCSFCKRAFPSGH, the protein stability index was 2.74. YEHHYHTPHGNVCSFCKRAFPSGH gave a protein stability index of 2.43. Work on YEHHYHTGHGNVCSFCKRAFPSGH yielded a protein stability index of 2.52. YEHHYHTWHGNVCSFCKRAFPSGH gave a protein stability index of 2.3. YEHHYHTEHGNVCSFCKRAFPSGH gave a protein stability index of 2.65. In the case of YEHHYHTSHGNVCSFCKRAFPSGH, the protein stability index is reported as 2.23. With YEHHYHTHHGNVCSFCKRAFPSGH the protein stability index was 2.92. In the case of YEHHYHTDHGNVCSFCKRAFPSGH, the protein stability index is reported as 2.57. YEHHYHTCHGNVCSFCKRAFPSGH gave a protein stability index of 3.62. In the case of YEHHYHTFHGNVCSFCKRAFPSGH, the protein stability index is reported as 2.62. YEHHYHTRHGNVCSFCKRAFPSGH showed a protein stability index of 2.4. With YEHHYHTQHGNVCSFCKRAFPSGH the protein stability index was 2.62. In the case of YEHHYHTYHGNVCSFCKRAFPSGH, the protein stability index is reported as 2.6. For YEHHYHTIHGNVCSFCKRAFPSGH, the protein stability index was 2.44. YEHHYHTNHGNVCSFCKRAFPSGH showed a protein stability index of 2.67. YEHHYHTMHGNVCSFCKRAFPSGH gave a protein stability index of 2.12. YEHHYHTKHGNVCSFCKRAFPSGH gave a protein stability index of 2.26. Work on YEHHYHTTHGNVCSFCKRAFPSGH yielded a protein stability index of 2.67. With YEHHYHTAHGNVCSFCKRAFPSGH the protein stability index was 2.47. With YEHHYDTLHGNVCSFCKRAFPSGH the protein stability index was 2.34. YEHHYYTLHGNVCSFCKRAFPSGH gave a protein stability index of 1.83. Work on YEHHYCTLHGNVCSFCKRAFPSGH yielded a protein stability index of 2.6. YEHHYLTLHGNVCSFCKRAFPSGH showed a protein stability index of 1.72. With YEHHYITLHGNVCSFCKRAFPSGH the protein stability index was 2.15. YEHHYRTLHGNVCSFCKRAFPSGH showed a protein stability index of 1.38. Work on YEHHYPTLHGNVCSFCKRAFPSGH yielded a protein stability index of 1.68. With YEHHYETLHGNVCSFCKRAFPSGH the protein stability index was 2.4. In the case of YEHHYWTLHGNVCSFCKRAFPSGH, the protein stability index is reported as 1.66. In the case of YEHHYMTLHGNVCSFCKRAFPSGH, the protein stability index is reported as 1.6. In the case of YEHHYNTLHGNVCSFCKRAFPSGH, the protein stability index is reported as 2.33. For YEHHYGTLHGNVCSFCKRAFPSGH, the protein stability index was 1.69. YEHHYKTLHGNVCSFCKRAFPSGH gave a protein stability index of 1.53. Variant YEHHYVTLHGNVCSFCKRAFPSGH has a protein stability index of 2.51. With YEHHYQTLHGNVCSFCKRAFPSGH the protein stability index was 1.88. Work on YEHHYFTLHGNVCSFCKRAFPSGH yielded a protein stability index of 1.48. YEHHYATLHGNVCSFCKRAFPSGH showed a protein stability index of 1.88. Work on YEHHYSTLHGNVCSFCKRAFPSGH yielded a protein stability index of 1.92. YEHHYTTLHGNVCSFCKRAFPSGH showed a protein stability index of 1.94. YELHYHTLHGNVCSFCKRAFPSGH showed a protein stability index of 2.13. Work on YEYHYHTLHGNVCSFCKRAFPSGH yielded a protein stability index of 2.23. With YEGHYHTLHGNVCSFCKRAFPSGH the protein stability index was 3.04. Variant YEDHYHTLHGNVCSFCKRAFPSGH has a protein stability index of 3.06. Variant YEWHYHTLHGNVCSFCKRAFPSGH has a protein stability index of 2.12. In the case of YEPHYHTLHGNVCSFCKRAFPSGH, the protein stability index is reported as 2.8. Variant YEAHYHTLHGNVCSFCKRAFPSGH has a protein stability index of 1.97. YEMHYHTLHGNVCSFCKRAFPSGH gave a protein stability index of 1.94. With YEEHYHTLHGNVCSFCKRAFPSGH the protein stability index was 2.9. With YEFHYHTLHGNVCSFCKRAFPSGH the protein stability index was 2.06. In the case of YESHYHTLHGNVCSFCKRAFPSGH, the protein stability index is reported as 2.6. YERHYHTLHGNVCSFCKRAFPSGH gave a protein stability index of 2.09. In the case of YETHYHTLHGNVCSFCKRAFPSGH, the protein stability index is reported as 2.91. With YECHYHTLHGNVCSFCKRAFPSGH the protein stability index was 3.57. For YEKHYHTLHGNVCSFCKRAFPSGH, the protein stability index was 2.27. YENHYHTLHGNVCSFCKRAFPSGH showed a protein stability index of 2.52. In the case of YEIHYHTLHGNVCSFCKRAFPSGH, the protein stability index is reported as 2.18. Variant YEVHYHTLHGNVCSFCKRAFPSGH has a protein stability index of 2.09. For YEQHYHTLHGNVCSFCKRAFPSGH, the protein stability index was 2.19. Work on YEHHYHDLHGNVCSFCKRAFPSGH yielded a protein stability index of 2.64. For YEHHYHVLHGNVCSFCKRAFPSGH, the protein stability index was 1.85. Work on YEHHYHPLHGNVCSFCKRAFPSGH yielded a protein stability index of 2.2. Variant YEHHYHYLHGNVCSFCKRAFPSGH has a protein stability index of 2.09. In the case of YEHHYHNLHGNVCSFCKRAFPSGH, the protein stability index is reported as 2.09. With YEHHYHKLHGNVCSFCKRAFPSGH the protein stability index was 1.24. With YEHHYHALHGNVCSFCKRAFPSGH the protein stability index was 1.95. YEHHYHELHGNVCSFCKRAFPSGH showed a protein stability index of 2.07. YEHHYHFLHGNVCSFCKRAFPSGH gave a protein stability index of 2.06. With YEHHYHQLHGNVCSFCKRAFPSGH the protein stability index was 1.9. YEHHYHSLHGNVCSFCKRAFPSGH showed a protein stability index of 1.72. YEHHYHLLHGNVCSFCKRAFPSGH showed a protein stability index of 2.28. For YEHHYHCLHGNVCSFCKRAFPSGH, the protein stability index was 2.77. For YEHHYHILHGNVCSFCKRAFPSGH, the protein stability index was 2.31. For YEHHYHWLHGNVCSFCKRAFPSGH, the protein stability index was 1.75. Variant YEHHYHHLHGNVCSFCKRAFPSGH has a protein stability index of 2.46. Work on YEHHYHRLHGNVCSFCKRAFPSGH yielded a protein stability index of 2.07. In the case of YEHHYHMLHGNVCSFCKRAFPSGH, the protein stability index is reported as 2.86. Variant YEHHYHGLHGNVCSFCKRAFPSGH has a protein stability index of 2.14. YEHHYHTLAGNVCSFCKRAFPSGH gave a protein stability index of 1.93. For YEHHYHTLDGNVCSFCKRAFPSGH, the protein stability index was 1.97. For YEHHYHTLGGNVCSFCKRAFPSGH, the protein stability index was 2.24. YEHHYHTLEGNVCSFCKRAFPSGH gave a protein stability index of 1.93. In the case of YEHHYHTLCGNVCSFCKRAFPSGH, the protein stability index is reported as 2.18. With YEHHYHTLFGNVCSFCKRAFPSGH the protein stability index was 1.68.
